What was measured:
[1] = molecular target: T1, human B7-H3 expressed on the surface of human cancer cell lines (human, UniProt Q5ZPR3 29-534); assay: flow cytometry on human cancer cell lines that express B7-H3
T1 construct: whole, on cells; also called 세포 표면 발현 B7-H3; CD276
T1 sequence (looked up): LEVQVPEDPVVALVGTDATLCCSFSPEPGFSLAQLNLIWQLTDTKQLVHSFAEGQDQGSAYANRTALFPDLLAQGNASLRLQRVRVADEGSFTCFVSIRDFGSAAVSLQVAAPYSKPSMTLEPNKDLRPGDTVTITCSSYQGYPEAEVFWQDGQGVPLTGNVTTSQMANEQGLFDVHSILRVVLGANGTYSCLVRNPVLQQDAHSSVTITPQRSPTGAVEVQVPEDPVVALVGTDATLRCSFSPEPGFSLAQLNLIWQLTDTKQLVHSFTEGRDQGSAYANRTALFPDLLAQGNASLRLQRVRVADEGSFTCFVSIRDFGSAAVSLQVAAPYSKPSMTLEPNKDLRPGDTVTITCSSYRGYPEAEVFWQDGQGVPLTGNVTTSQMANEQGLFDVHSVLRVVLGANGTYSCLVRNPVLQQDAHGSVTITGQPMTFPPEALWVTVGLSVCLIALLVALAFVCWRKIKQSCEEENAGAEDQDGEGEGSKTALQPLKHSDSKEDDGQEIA

[2] = molecular target: T2, mouse B7-H3 expressed on the surface of mouse cancer cell lines (CT26, B16F10, TC-1) (mouse, UniProt Q8VE98 29-316); assay: flow cytometry on CT26, B16F10 and TC-1 cells, 10 ㎍/㎖
T2 construct: whole, on cells; also called 세포 표면 발현 마우스 B7-H3
T2 sequence (looked up): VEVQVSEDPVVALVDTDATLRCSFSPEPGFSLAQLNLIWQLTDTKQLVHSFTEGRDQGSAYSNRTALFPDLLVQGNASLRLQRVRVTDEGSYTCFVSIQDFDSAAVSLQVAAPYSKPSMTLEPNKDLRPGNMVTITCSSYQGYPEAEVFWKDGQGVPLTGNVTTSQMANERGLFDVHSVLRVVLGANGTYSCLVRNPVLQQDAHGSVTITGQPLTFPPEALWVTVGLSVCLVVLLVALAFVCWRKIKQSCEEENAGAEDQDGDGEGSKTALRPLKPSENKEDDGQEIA

[3] = molecular target: T3, recombinant mouse B7-H3 protein with C-terminal His tag (Sino Biological, 50973-M08H) (mouse, UniProt Q8VE98 29-244); assay: ELISA, IgG on coated recombinant mouse B7-H3-His
T3 construct: Bought; also called 마우스 B7-H3
T3 sequence (looked up): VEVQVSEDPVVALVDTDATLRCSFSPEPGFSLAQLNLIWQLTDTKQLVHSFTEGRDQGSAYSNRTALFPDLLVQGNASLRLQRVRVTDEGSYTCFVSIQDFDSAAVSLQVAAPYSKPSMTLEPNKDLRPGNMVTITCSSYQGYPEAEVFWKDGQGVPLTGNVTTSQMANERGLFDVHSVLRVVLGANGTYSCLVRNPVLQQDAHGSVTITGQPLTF

Measured: binding result

B1: anti-B7-H3 antibody B5 (full IgG form) (antibody, V domains shown)
VH: EVQLLESGGGLVQPGGSLRLSCAASGFTFSDYAMSWVRQAPGKGLEWVSSISSGSGSIYYADSVKGRFTISRDNSKNTLYLQMNSLRAEDTAVYYCAKNLIPLDYWGQGTLVTVSS
VL: QSVLTQPPSASGTPGQRVTISCSGSSSNIGSNAVSWYQQLPGTAPKLLIYYNSHRPSGVPDRFSGSKSGTSASLAISGLRSEDEADYYCGSWDASLNAYVFGGGTKLTVLG
binds: [1] | [2] | [3]

B2: anti-B7-H3 antibody F6V (full IgG form) (antibody, V domains shown)
VH: EVQLLESGGGLVQPGGSLRLSCAASGFTFSDYAMSWVRQAPGKGLEWVSGISPGGSNTYYADSVKGRFTISRDNSKNTLYLQMNSLRAEDTAVYYCAKDAWIARLLLFDYWGQGTLVTVSS
VL: QSVLTQPPSASGTPGQRVTISCSGSSSNIGSNAVTWYQQLPGTAPKLLIYYNNKRPSGVPDRFSGSKSGTSASLAISGLRSEDEADYYCGTWDDSLSGYVFGGGTKLTVLG
binds: [1] | [2] | [3]

B3: anti-B7-H3 antibody D8G (full IgG form) (antibody, V domains shown)
VH: EVQLLESGGGLVQPGGSLRLSCAASGFTFSSYSMSWVRQAPGKGLEWVSGIYSDGSNTYYADSVKGRFTISRDNSKNTLYLQMNSLRAEDTAVYYCAKMLHRFDYWGQGTLVTVSS
VL: QSVLTQPPSASGTPGQRVTISCSGSSSNIGSNSVTWYQQLPGTAPKLLIYADSQRPSGVPDRFSGSKSGTSASLAISGLRSEDEADYYCGTWDSSLNAYVFGGGTKLTVLG
binds: [1] | [2] | [3]

B4: anti-B7-H3 antibody C4I (full IgG form) (antibody, V domains shown)
VH: EVQLLESGGGLVQPGGSLRLSCAASGFTFSGYYMSWVRQAPGKGLEWVSLISPSSGSIYYADSVKGRFTISRDNSKNTLYLQMNSLRAEDTAVYYCAKGLTKFDYWGQGTLVTVSS
VL: QSVLTQPPSASGTPGQRVTISCTGSSSNIGSNDVSWYQQLPGTAPKLLIYANSHRPSGVPDRFSGSKSGTSASLAISGLRSEDEADYYCGSWDDSLSGYVFGGGTKLTVLG
binds: [1] | [2] | [3]

B5: anti-B7-H3 antibody 10F11 (full IgG form) (antibody, V domains shown)
VH: EVQLLESGGGLVQPGGSLRLSCAASGFTFSSYGMSWVRQAPGKGLEWVSGIYSGGSSKYYADSVKGRFTISRDNSKNTLYLQMNSLRAEDTAVYYCAKNRLRFDYWGQGTLVTVSS
VL: QSVLTQPPSASGTPGQRVTISCTGSSSNIGSNSVTWYQQLPGTAPKLLIYSDSHRPSGVPDRFSGSKSGTSASLAISGLRSEDEADYYCGTWDASLNAYVFGGGTKLTVLG
binds: [1] | [2] | [3]

Reference: KR20210063070A (dated 2021)
